Measurements published in US20030175848A1, “Substituted dithiobisnitrobenzenes and their applications” (Institut Pasteur De Lille, priority 1998, published 2003).

Substrate: CN(C)CCCNC(=O)c1cc(SSc2ccc([N+](=O)[O-])c(C(=O)NCCCN(C)C)c2)ccc1[N+](=O)[O-]
Test: purified protein, by the assay type
Settings: other: substrate of recombinant TcTR, 25° C., buffer A pH 7.25, 0.2 mM NADPH, * = estimated at low substrate concentrations (15-200 μM), inhibition effects
Procedure: The TcTR concentration is determined by measuring the number of subunits containing FAD at 461 nm (ε=11.3 mM^−1×cm^−1); the enzymatic activity is tested as specified in (28). One TR unit corresponds to 1 μmol of T(S)2 reduced per minute at 25° C. in a buffer A (20 mM Hepes, pH 7.25 containing 1 mM EDTA and 0.15 M KCl).
The enzyme stock solutions used for the kinetic determinations are pure (verification in SDS-PAGE) and have a specific activity of 137 U/mg in the T(S)2 reduction test performed in the presence of 500 μM NADPH and 518 μM T(S)2 in a buffer A.
All the kinetic studies are carried out in the same buffer at 25° C., in the presence of 200 μM of NADPH.
All the tests were carried out at 25° C. in 20 mM HEPES, 1 Mm EDTA, 150 mM KCl, at pH 7.25 (buffer A) and in the presence of 0.2 mM NADPH.

B1: trypanothione reductase from Trypanosoma cruzi (TcTR) (Trypanosoma cruzi) (protein)
chain: MMSKIFDLVVIGAGSGGLEAAWNAATLYKKRVAVIDVQMVHGPPFFSALGGTCVNVGCVPKKLMVTGAQYMEHLRESAGFGWEFDRTTLRAEWKKLIAVKDEAVLNINKSYEEMFRDTEGLEFFLGWGSLESKNVVNVRESADPASAVKERLETENILLASGSWPHMPNIPGIEHCISSNEAFYLPEPPRRVLTVGGGFISVEFAGIFNAYKPKDGQVTLCYRGEMILRGFDHTLREELTKQLTANGIQILTKENPAKVELNADGSKSVTFESGKKMDFDLVMMAIGRSPRTKDLQLQNAGVMIKNGGVQVDEYSRTNVSNIYAIGDVTNRVMLTPVAINEAAALVDTVFGTNPRKTDHTRVASAVFSIPPIGTCGLIEEVASKRYEVVAVYLSSFTPLMHNISGSKYKTFVAKIITNHSDGTVLGVHLLGDNAPEIIQGVGICLKLNAKISDFYNTIGVHPTSAEELCSMRTPSYYYVKGEKMEKPSEASL
- Km: 35 µM
- kcat: 125 s⁻¹
- kcat/Km: 3.6e+06 M⁻¹ s⁻¹
